The source of these data is publication PMC12810213, “Crystal structure of a short-chain dehydrogenase from Brucella ovis with apo and coenzyme NAD^+-bound protomer chains” (Acta Crystallographica Section F: Structural Biology …, 2025).

Data set [1] concerns the molecule itself. Nature of the data set: crystal structure.
Data set [2] deals with the molecule itself. Nature of the data set: SEC.

B1: short-chain dehydrogenase/reductase-family oxidoreductase from Brucella ovis ATCC 25840 (enzyme)
chain: MELLKEKLVLVTGAGRGLGAAISSGAAEQGARVILVDIDGTAAKAQADALTAKGFVAEGHALDVTDRDAVAALADDILSRFGGLDVLVNNAGVAGRAAFDQPEAVEVWDRVIGVNLEGAFNVSHALVPALKAAKGNVVHLCSVAGFVSGGSTAGYVVSKGAIRSLTQVMARDLAPHGIRVNAVAPGIMMSEMAVAQLNRPGGTDWFMNRVMMKRIGETSEVVDPVVFLASPMASYITGTILPVDGGFLAA
notes: also called BoSDR; B. ovis SDR; not shown: His6, N-terminal, kept
B1: the entries for the “stoichiometry N” value in data set [1] and in data set [2] were 4 and approximately 2, respectively.
